Experimental data taken from the Human Domainome abundance scans (Beltran et al. 2025).
± gives the uncertainty stated by the source.

B1: Nuclear receptor subfamily 4 group A member 2, residues 260 to 336; numbered along this chain, P43354 (parent)
chain: EGLCAVCGDNAACQHYGVRTCEGCKGFFKRTVQKNAKYVCLANKNCPVDKRRRNRCQYCRFQKCLAVGMVKEVVRTD

Variants of: B1
Assay: abundance fitness (aPCA) (normalised: wild type 0, dead -1); higher = more abundant; growth selection in yeast, the domain comes from the species named
Settings: Homo sapiens
P47C showed an abundance fitness of -0.184 ± 0.081. P47W showed an abundance fitness of -0.215 ± 0.062. Variant P47F has an abundance fitness of -0.183 ± 0.1. Variant P47G has an abundance fitness of -0.085 ± 0.037. For P47L, the abundance fitness was -0.004 ± 0.063. P47V showed an abundance fitness of -0.056 ± 0.049. With P47A the abundance fitness was -0.033 ± 0.13. With P47I the abundance fitness was 0.009 ± 0.2. Work on Q57Y yielded an abundance fitness of -0.158 ± 0.19. With Q57M the abundance fitness was 0.463 ± 0.35. Work on Q57W yielded an abundance fitness of -0.28 ± 0.074. Q57F gave an abundance fitness of -0.177 ± 0.13. Q57V showed an abundance fitness of -0.126 ± 0.054. With Q57R the abundance fitness was -0.289 ± 0.11. In the case of Q57S, the abundance fitness is reported as 0.083 ± 0.12. With Q57E the abundance fitness was -0.083 ± 0.11. Q57A gave an abundance fitness of 0.068 ± 0.097. Q57P gave an abundance fitness of 0.187 ± 0.25. For Q57L, the abundance fitness was -0.034 ± 0.065. For R52S, the abundance fitness was -0.31 ± 0.14. For R52E, the abundance fitness was 0 ± 0.094. With R52L the abundance fitness was -0.043 ± 0.057. For R52M, the abundance fitness was -0.021 ± 0.1. R52K gave an abundance fitness of 0.041 ± 0.13. With R52W the abundance fitness was 0.01 ± 0.063. Variant R52D has an abundance fitness of 0.002 ± 0.12. R52A gave an abundance fitness of 0.025 ± 0.083. In the case of R52Y, the abundance fitness is reported as 0.204 ± 0.47. With R52F the abundance fitness was -0.08 ± 0.094. Variant R52C has an abundance fitness of -0.061 ± 0.071. Variant R52V has an abundance fitness of -0.021 ± 0.043. Work on R52G yielded an abundance fitness of 0.065 ± 0.036. With R30G the abundance fitness was -0.235 ± 0.072. R30D showed an abundance fitness of -0.032 ± 0.28. R30I showed an abundance fitness of -0.163 ± 0.23. With R30M the abundance fitness was -0.148 ± 0.2. Work on R30E yielded an abundance fitness of -0.105 ± 0.14. R30F gave an abundance fitness of -0.032 ± 0.36. With R30W the abundance fitness was -0.16 ± 0.096. R30K gave an abundance fitness of -0.016 ± 0.38. R30T showed an abundance fitness of -0.028 ± 0.13. In the case of R30C, the abundance fitness is reported as -0.086 ± 0.19. Work on R30V yielded an abundance fitness of -0.216 ± 0.086. With R30Q the abundance fitness was -0.005 ± 0.13. R30N showed an abundance fitness of -0.126 ± 0.17. Variant R30S has an abundance fitness of -0.086 ± 0.092. In the case of D49Y, the abundance fitness is reported as -0.148 ± 0.27. Variant D49G has an abundance fitness of -0.073 ± 0.035. Variant D49F has an abundance fitness of -0.204 ± 0.092. Work on D49M yielded an abundance fitness of -0.11 ± 0.37. Variant D49L has an abundance fitness of -0.222 ± 0.078. With D49W the abundance fitness was -0.21 ± 0.062. Work on D49R yielded an abundance fitness of -0.22 ± 0.073. Work on D49E yielded an abundance fitness of 0.033 ± 0.097. For D49C, the abundance fitness was -0.67 ± 0.14. In the case of D49T, the abundance fitness is reported as 0.013 ± 0.23. D49V gave an abundance fitness of -0.326 ± 0.049. Variant D49A has an abundance fitness of -0.135 ± 0.084. A36F showed an abundance fitness of 0.458 ± 0.19. With A36C the abundance fitness was -0.017 ± 0.14. Work on A36G yielded an abundance fitness of -0.093 ± 0.071. For A36P, the abundance fitness was -0.081 ± 0.3. For A36M, the abundance fitness was -0.093 ± 0.24. Variant A36L has an abundance fitness of 0.017 ± 0.097. A36E showed an abundance fitness of -0.001 ± 0.11. Variant A36V has an abundance fitness of -0.023 ± 0.079. Work on A36Q yielded an abundance fitness of -0.085 ± 0.24. Variant A36K has an abundance fitness of -0.291 ± 0.26. For A36W, the abundance fitness was -0.057 ± 0.12. A36D gave an abundance fitness of -0.019 ± 0.1. With A36S the abundance fitness was -0.095 ± 0.1. Work on K29M yielded an abundance fitness of 0.296 ± 0.19. For K29L, the abundance fitness was 0.008 ± 0.078. Work on K29T yielded an abundance fitness of -0.066 ± 0.16. K29G showed an abundance fitness of -0.178 ± 0.074. K29I gave an abundance fitness of 0.214 ± 0.21. Variant K29N has an abundance fitness of -0.138 ± 0.33. In the case of K29S, the abundance fitness is reported as 0.121 ± 0.11. K29D showed an abundance fitness of 0.11 ± 0.21. K29P showed an abundance fitness of -0.126 ± 0.2. K29R gave an abundance fitness of -0.123 ± 0.08. Work on K29Q yielded an abundance fitness of -0.097 ± 0.12. Variant K29W has an abundance fitness of -0.253 ± 0.19. For K29C, the abundance fitness was -0.239 ± 0.27. For K29Y, the abundance fitness was -0.344 ± 0.42. Variant K29A has an abundance fitness of 0.014 ± 0.096. Variant K29H has an abundance fitness of 0.071 ± 0.17. In the case of C46L, the abundance fitness is reported as -0.609 ± 0.1. Variant C46A has an abundance fitness of -1.16 ± 0.37. For C46R, the abundance fitness was -1.07 ± 0.22. With C46E the abundance fitness was -1.09 ± 0.46. In the case of C46M, the abundance fitness is reported as -0.993 ± 0.35. Variant C46G has an abundance fitness of -0.897 ± 0.056. C46W gave an abundance fitness of -1.03 ± 0.13. For C46V, the abundance fitness was -0.851 ± 0.077. With C46S the abundance fitness was -0.754 ± 0.19. Work on T31R yielded an abundance fitness of -0.126 ± 0.22. T31Q gave an abundance fitness of -0.167 ± 0.45. In the case of T31V, the abundance fitness is reported as -0.061 ± 0.33. Variant R55Y has an abundance fitness of 0.038 ± 0.16. For R55E, the abundance fitness was -0.035 ± 0.12. In the case of R55M, the abundance fitness is reported as -0.089 ± 0.12. With R55G the abundance fitness was -0.023 ± 0.035. With R55A the abundance fitness was -0.134 ± 0.081. With R55V the abundance fitness was 0.024 ± 0.04. In the case of R55S, the abundance fitness is reported as -0.164 ± 0.1. In the case of R55L, the abundance fitness is reported as 0.035 ± 0.06. In the case of R55D, the abundance fitness is reported as -0.065 ± 0.13. R55C showed an abundance fitness of -0.028 ± 0.076. R55W showed an abundance fitness of -0.026 ± 0.054. N54W showed an abundance fitness of -0.015 ± 0.061. For N54G, the abundance fitness was 0.06 ± 0.038. With N54S the abundance fitness was 0.148 ± 0.091. In the case of N54T, the abundance fitness is reported as -0.555 ± 0.47. N54R gave an abundance fitness of -0.15 ± 0.11. Variant N54L has an abundance fitness of -0.123 ± 0.065. Variant N54I has an abundance fitness of 0.164 ± 0.43. N54C gave an abundance fitness of -0.472 ± 0.11. For N54D, the abundance fitness was 0.135 ± 0.2. N54E gave an abundance fitness of -0.244 ± 0.24. In the case of N54Q, the abundance fitness is reported as -0.032 ± 0.24. N54F gave an abundance fitness of -0.143 ± 0.12. N54P gave an abundance fitness of -0.34 ± 0.43. N54V showed an abundance fitness of -0.094 ± 0.052. Variant N54A has an abundance fitness of -0.148 ± 0.14. In the case of K34G, the abundance fitness is reported as 0.05 ± 0.12. In the case of K34W, the abundance fitness is reported as -0.227 ± 0.49. For K34R, the abundance fitness was -0.243 ± 0.24. K34C gave an abundance fitness of -0.033 ± 0.41. K34V gave an abundance fitness of -0.037 ± 0.23. With K34S the abundance fitness was -0.051 ± 0.21. Variant V48R has an abundance fitness of -0.449 ± 0.1. With V48G the abundance fitness was -0.493 ± 0.041. Work on V48W yielded an abundance fitness of -0.258 ± 0.05. Work on V48F yielded an abundance fitness of -0.407 ± 0.11. Variant V48C has an abundance fitness of -0.156 ± 0.067. Variant V48M has an abundance fitness of -0.032 ± 0.27. In the case of V48A, the abundance fitness is reported as -0.409 ± 0.17. For V48L, the abundance fitness was -0.175 ± 0.067. In the case of V48S, the abundance fitness is reported as -0.091 ± 0.17. In the case of C56R, the abundance fitness is reported as -1.06 ± 0.19. C56S showed an abundance fitness of -0.667 ± 0.23. For C56F, the abundance fitness was -1.21 ± 0.38. For C56V, the abundance fitness was -1.05 ± 0.11. C56A showed an abundance fitness of -0.941 ± 0.28. C56G gave an abundance fitness of -1.05 ± 0.073. For C56D, the abundance fitness was -0.707 ± 0.37. In the case of C56L, the abundance fitness is reported as -1.09 ± 0.23. C56W gave an abundance fitness of -0.908 ± 0.097. With C56E the abundance fitness was -0.894 ± 0.33. N35I showed an abundance fitness of -0.127 ± 0.27. N35Y showed an abundance fitness of -0.139 ± 0.15. In the case of N35W, the abundance fitness is reported as -0.407 ± 0.12. Work on N35F yielded an abundance fitness of -0.089 ± 0.35. Work on N35C yielded an abundance fitness of 0.141 ± 0.22. In the case of N35S, the abundance fitness is reported as -0.198 ± 0.085. Work on N35Q yielded an abundance fitness of -0.081 ± 0.1. In the case of N35E, the abundance fitness is reported as 0.071 ± 0.094. N35A gave an abundance fitness of 0.011 ± 0.068. With N35D the abundance fitness was 0.118 ± 0.12. N35M showed an abundance fitness of -0.173 ± 0.11. Work on N35H yielded an abundance fitness of -0.13 ± 0.14. Variant N35T has an abundance fitness of -0.137 ± 0.13. N35V showed an abundance fitness of -0.487 ± 0.12. N35K showed an abundance fitness of 0.033 ± 0.12. Variant N35R has an abundance fitness of -0.136 ± 0.088. N35L showed an abundance fitness of -0.085 ± 0.087.
